Results: the supplement of paper PMC7125110
± gives the standard error. Variants at the floor of the assay were thinned out.

B1: glmS ribozyme (parent)
chain: AUAAAAGCGCCAGAACUACAGAAAUGUAGUUGACGAGGAGGAGGUUUAUCGAAUUUUCGGCGGAUGCCUCCAAA

Columns and labels:
Settings in all cases: with glucosamine-6-phosphate
glucosamine-6-phosphate [1] = variants of: B1; experiment: self-cleavage kobs at 40 uM GlcN6P; higher = faster cleavage; RNA array
Procedure, shortened: (§1)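 Barcoded glmS ribozyme variants on sequenced MiSeq chips were transcribed in situ by E. coli RNA polymerase and tracked through a hybridised Cy3 probe at 37 °C. Glucosamine-6-phosphate (40 μM to 10 mM) in HEPES/KCl/Mg(OAc)2 buffer was flowed in, and tiles were imaged over ~14 h. Signals were normalised to baseline and to non-cleaving reference variants; per-tile medians were fit to one- or two-exponential decays to give kobs. kcat and KM came from weighted Michaelis–Menten fits across concentrations.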

glucosamine-6-phosphate [2] = variants of: B1; experiment: self-cleavage kobs at 160 uM GlcN6P; higher = faster cleavage; RNA array
Procedure, shortened: as §1

glucosamine-6-phosphate [3] = variants of: B1; experiment: self-cleavage kobs at 640 uM GlcN6P; higher = faster cleavage; RNA array
Procedure, shortened: as §1

glucosamine-6-phosphate [4] = variants of: B1; experiment: self-cleavage kobs at 2500 uM GlcN6P; higher = faster cleavage; RNA array
Procedure, shortened: as §1

glucosamine-6-phosphate [5] = variants of: B1; experiment: self-cleavage kobs at 10000 uM GlcN6P; higher = faster cleavage; RNA array
Procedure, shortened: as §1

Variant	self-cleavage kobs at 40 uM GlcN6P (glucosamine-6-phosphate [1])	self-cleavage kobs at 160 uM GlcN6P (glucosamine-6-phosphate [2])	self-cleavage kobs at 640 uM GlcN6P (glucosamine-6-phosphate [3])	self-cleavage kobs at 2500 uM GlcN6P (glucosamine-6-phosphate [4])	self-cleavage kobs at 10000 uM GlcN6P (glucosamine-6-phosphate [5])
G13U C50G C70G	7.6e-05 ± 2.2e-05 s⁻¹	0.000214 ± 5.6e-05 s⁻¹	8.28e-05 ± 1.7e-05 s⁻¹	0.000166 ± 3.6e-05 s⁻¹	6.1e-05 ± 1.2e-05 s⁻¹
A14G A15U	0.00111 ± 0.00019 s⁻¹	0.000722 ± 0.00014 s⁻¹	0.00751 ± 0.0013 s⁻¹	0.00555 ± 0.0014 s⁻¹	0.0592 ± 0.021 s⁻¹
A14U G63U	< 1e-05 s⁻¹	< 1e-05 s⁻¹	< 1e-05 s⁻¹	< 1e-05 s⁻¹	–
A14U G63A	< 1e-05 s⁻¹	–	< 1e-05 s⁻¹	–	–
A14C G44C C50U U65G	< 1e-05 s⁻¹	–	–	–	–
A14C A15U U47C	< 1e-05 s⁻¹	–	–	–	–
A14G U69C	0.00132 ± 0.00036 s⁻¹	–	–	–	0.00782 ± 0.0029 s⁻¹
A15U G32A A42C U54C U56G G63A	< 1e-05 s⁻¹	–	–	–	–
A15C G43U U54C	< 1e-05 s⁻¹	–	–	–	< 1e-05 s⁻¹
A14U C34G	< 1e-05 s⁻¹	< 1e-05 s⁻¹	< 1e-05 s⁻¹	–	< 1e-05 s⁻¹
A14U C34U	< 1e-05 s⁻¹	< 1e-05 s⁻¹	< 1e-05 s⁻¹	< 1e-05 s⁻¹	< 1e-05 s⁻¹
C16A U31A U47C G63A	< 1e-05 s⁻¹	–	–	–	–
C16A C50G	0.000251 ± 0.0001 s⁻¹	7.18e-05 ± 1.9e-05 s⁻¹	4.7e-05 ± 1.7e-05 s⁻¹	5.49e-05 ± 1.1e-05 s⁻¹	7.6e-05 ± 3.6e-05 s⁻¹
C16G C34G G44U C50U U69C	< 1e-05 s⁻¹	–	–	–	–
A15G U30C C67A	0.000291 ± 6.8e-05 s⁻¹	0.00105 ± 0.00028 s⁻¹	0.00103 ± 0.00029 s⁻¹	0.00517 ± 0.0012 s⁻¹	0.0108 ± 0.0031 s⁻¹
C16G G29U	0.000398 ± 5.9e-05 s⁻¹	0.00129 ± 0.00034 s⁻¹	0.00183 ± 0.00046 s⁻¹	0.00758 ± 0.0015 s⁻¹	0.0203 ± 0.0044 s⁻¹
C16G U31A	5.78e-05 ± 2.1e-05 s⁻¹	4.17e-05 ± 1.9e-05 s⁻¹	0.000204 ± 8.2e-05 s⁻¹	0.00117 ± 0.00048 s⁻¹	0.00174 ± 0.0006 s⁻¹
A15C G35A G51A C68A	< 1e-05 s⁻¹	–	< 1e-05 s⁻¹	–	< 1e-05 s⁻¹
G13U G40U A48U C67A	< 1e-05 s⁻¹	–	–	–	< 1e-05 s⁻¹
A15G G60C	< 1e-05 s⁻¹	–	–	–	–
C16A G40C	< 1e-05 s⁻¹	–	4.46e-05 ± 1.5e-05 s⁻¹	0.000112 ± 1.8e-05 s⁻¹	–
